Reference: patent US20180072782A1 (UNIVERSITY OF GEORGIA RESEARCH FOUNDATION, published 2018)
One block for each binder: values may come before it. Bridges are numbered along the chain shown (N, C = ends). [ ]: non-standard residue; d: D form. The star is where a group is joined. Biotin = O=C1N[C@H]2[C@H](CS[C@H]2CCCCC(=O)*)N1; S5 = C=CCCC[C@](C)(N)C(=O)O; AEEEA = NCCOCCOCCOCC(=O)O

Target: T1, Cytoplasmic FMR1-interacting protein 1 (CYFIP1), endogenous in MDA-MB-231 cells (human, UniProt Q7L576 1-1253)
T1 construct: Endogenous protein of a human breast cancer cell line, detected by western blot; also called SRA1
T1 sequence (Q7L576 whole entry): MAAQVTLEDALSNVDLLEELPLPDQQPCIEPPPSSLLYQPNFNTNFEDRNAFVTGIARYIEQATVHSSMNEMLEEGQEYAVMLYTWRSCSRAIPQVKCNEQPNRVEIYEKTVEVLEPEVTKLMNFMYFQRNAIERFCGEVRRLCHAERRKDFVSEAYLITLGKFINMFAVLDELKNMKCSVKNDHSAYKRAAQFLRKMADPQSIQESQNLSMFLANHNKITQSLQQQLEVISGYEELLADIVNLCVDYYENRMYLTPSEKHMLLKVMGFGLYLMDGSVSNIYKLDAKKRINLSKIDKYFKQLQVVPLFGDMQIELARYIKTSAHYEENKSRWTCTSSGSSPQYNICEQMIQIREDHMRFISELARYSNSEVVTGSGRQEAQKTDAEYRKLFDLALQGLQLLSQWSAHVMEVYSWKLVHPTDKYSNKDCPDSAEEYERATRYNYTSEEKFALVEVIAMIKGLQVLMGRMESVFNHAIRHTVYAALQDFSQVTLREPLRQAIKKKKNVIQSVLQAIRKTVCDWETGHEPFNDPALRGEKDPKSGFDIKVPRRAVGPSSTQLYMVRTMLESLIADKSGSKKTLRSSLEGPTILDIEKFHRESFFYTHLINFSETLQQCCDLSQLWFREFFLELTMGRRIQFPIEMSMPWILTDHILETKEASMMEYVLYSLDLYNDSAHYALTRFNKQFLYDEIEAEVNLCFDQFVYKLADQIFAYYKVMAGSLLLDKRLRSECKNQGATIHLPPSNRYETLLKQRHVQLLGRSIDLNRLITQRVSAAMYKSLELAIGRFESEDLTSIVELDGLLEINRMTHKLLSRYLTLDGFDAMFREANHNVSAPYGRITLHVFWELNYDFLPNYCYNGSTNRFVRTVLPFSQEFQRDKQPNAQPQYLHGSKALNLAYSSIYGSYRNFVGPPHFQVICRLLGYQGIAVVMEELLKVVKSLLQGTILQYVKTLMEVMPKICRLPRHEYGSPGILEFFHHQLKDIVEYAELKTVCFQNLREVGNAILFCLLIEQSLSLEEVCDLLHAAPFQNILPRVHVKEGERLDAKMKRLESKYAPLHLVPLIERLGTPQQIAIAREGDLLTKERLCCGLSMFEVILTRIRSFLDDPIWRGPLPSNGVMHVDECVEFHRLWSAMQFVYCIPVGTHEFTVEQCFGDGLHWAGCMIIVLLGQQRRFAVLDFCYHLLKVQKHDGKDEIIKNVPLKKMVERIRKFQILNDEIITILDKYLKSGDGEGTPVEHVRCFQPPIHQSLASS
Experiment: avidin-biotin pull-down with biotinylated peptide from treated MDA-MB-231 cells, western blot
Method: Specially, to determine the physical interaction with individual peptides, MDA-MB-231 cells were pretreated with 10 μM biotin-labeled peptides for 24 hours and lysates were incubated with immobilized avidin resin overnight at 4° C. The pull down samples were subjected to SDS-PAGE followed by Western blot analysis.

binding result: no binding (tested: 10 µM)
B1: SCR1, scrambled stapled control peptide for WAHM1 (peptide)
peptide: {Biotin-AEEEA}-SRA[S5]LLI[S5]TKIQNELK-NH2
modifications: staple 4-8; not fully specified
notes: Negative control; also called scrambled control (SCR) peptide 1; SCR peptides

binding result: no binding (tested: 10 µM)
B2: SCR2, scrambled stapled control peptide for WAHM2 (peptide)
peptide: {Biotin-AEEEA}-TRAILL[S5]ITK[S5]QNELK-NH2
modifications: staple 7-11; not fully specified
notes: Negative control; also called SCR peptides
